Reference: the nanobody polyreactivity screen of Harvey et al. (2022)

Experiment: yeast display, Sf9 membrane polyspecificity reagent, FACS + sequencing; frameworks hold sequencing errors
Procedure, shortened: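 Nanobodies from a synthetic yeast display library (Saccharomyces cerevisiae BJ5465), induced 36–48 hours with galactose, were stained 1 hour at 4 °C with 10% biotinylated, detergent-solubilized Sf9 membrane reagent, enriched on streptavidin microbeads, then FACS-sorted. Anti-HA (expression) and streptavidin (reagent binding) fluorescence set low and high (top ~1%) gates. Polyreactivity labels come from the gate of origin. Genes were colony-PCR amplified, MiSeq 2 × 250 sequenced and filtered by CDR length.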

Sequence	polyreactivity (PSR sort gate)
QVQLVESGGGLVQAGGSLRLSCAASGFTFSRYAMGWYRQAPGKERELVAAISLRGGRTYYADSVKGRFTISRDKTKNSVYLQMNSLKPEDTAVYYCNRDYRGPYYYWGQGSQVTVSS	high polyreactivity
QVHLVETGGGLVQAGGSLRLSCAASGSIFSSYHMVWYRQAPGKERELVASISSGGSTNYADSVKGRFTISRDNAKNTVYLHMNSLNPEVTAVYYCNVDLYNWRGDSTGYDYWGQGTQVTVSS	low polyreactivity
QVQLVESGGCLVQAGGSLRLSCAASGRIFAYNAMGWYRQAPGKESELVAAITRGGSTNYADSVKGRFTISRDNAKNTVYLQMNSLKPEDTAVYYCAARRVDTRVHVRYRYYYWGQGTQVTVSS	high polyreactivity
QVQRVESVGGLVQAGGSLRLICAASGRIFQVNAIGWYRQAPGKERELVAAITYSGGTTYYADSVKGRFTISRDNAKNTVYLQMNSLKPEDTAVYYCAAEGYGALGDPWQYGYEYWGQGTQVTVSS	low polyreactivity
QVQLVESGGGLVQAGGSLRLSCAASGITFDDYAMGWYRQAPGKERELVAAISVSGGDTYYADSVKGRFTISRDNAKNTVYLQMNSLKPEDSAVYYCAAEEVSPRWYDYWGLGTQVTVSS	low polyreactivity
QVQLVESGGGLVQAGGSLRLSCAASGRIFYGYAMGWYRQAPGKERELVAAISSGGITYYADSVKGRFTISRDNAKNTVYLQMNSLKPEDTAVYYCAATVLGDYEYWGQGTQVTVSS	low polyreactivity
QVQLVESGGGLVQAGGSLRLSCAASGRTFKRYAMGWYRQAPGKERELVAAITRSGGSTYYADSVKGRFTISRDNAKNTVYLQMNSLKPEDTAVYYCATRSYNNELEYWGQGTQVTVSS	high polyreactivity
QVQLVESGGGLVQAGGSLRLSCAASGSISVWYVMGWYRPAPGTERELVAAITRSGGSTFYADSVKGRFTISRDNAKNTVYLQMNSLKPEDTAVYYCAADGGVAWGYGYWGQGTQVTVSS	low polyreactivity
QVQLEESGGGLVQAGGSLRLSCAASGFTFRKNAMGWYRQAPGKERELVAAISSGGGRTYYADSVKGRFTISRDNANNTVYLQMNSLKPEDTAVYYCAVSIGRYPYRYGYWGQGTQVTVSS	high polyreactivity
QVQLVESGGGLVQAGGSLRLSCAASGYTFRHYAMGWYRQEPGKERELVAAITFNGGTTYYADSVKGRFTISRDNAKNTVYLQMNSLKPEDTAVYYCNALPYSRGRWRPLSAVDYWGQGTQVTVSS	high polyreactivity
QVQLVESGGGLVQAGGSLRLSCAASGSTFNRYAMGWYRPAPGKEWELVAAISGSNGGTDYADSVKGRFTISRDNAKNTVYLQMNSLKPEDTAVYYCAKVRAYTRLGLTVSMDYWGQGTQVTVSS	high polyreactivity
QVQLVESGVRLGQAGGSLRLSCAASGSIFLRYAMGWFRPAPGKERELVATISQRGSTYYADSVKGRFTISRDNAKNTVYLKKNSLKPEDTAVYYCNAVGRARTLGSNTYGYWGQGTQVTVSS	high polyreactivity
QVQLVESGGGLVQAGGSLRLSCAASGLIFPPNVMGWYRQAPGKDRELVAAITSSGSTNYADSVTGRFTISRDNAKNTVYLQMNSLKPEDTAVYYCARDQTWSYQPWYYLSYTQYEYWGQGNQVTVSS	low polyreactivity
QVQLVESGGGLVQAGGSLRLSCAASGRTFQDNAMGWYRQAPGKEREFVAAISWSGDSTYYADSVKGRFTISRDNAKNTVYLQMNSLKPEDTAVYYCAASRVIPSYPYYKYDYWGQGTQVTVSS	low polyreactivity
QVQLVESGGGLVQAGGTLRLSCAASGSTFAANAMGCSRQAPGKERELVAGISESGDRTYADSVKGRFTISRDNAKNTVYLQMNSQKPEETAVYYCNVGANVYLLYFPSRGGVYDYGYWGHGTQVTVSS	low polyreactivity
QVQLVESGGGLVQAGGSLRLSCAASGRIFVLYTMGWYRQAPGKERELVAAISRRGGNTNYADSVKGRFTISRDNAKNTVYLQMNSLKPEDTAVYFCNARWTGARYYYYPMDYWGQGTQVTVSS	high polyreactivity
QVQLVESGGGLVQAGGSLRLSCAASGRIFYGNAMGWYRQAPGKERELVAAISSGTTTNYADSVKGRFTISRDNAKNTVYLQMNSLKPEDTAVYYCAAGSYSRYLYSLYFDFDYWGQGTQVTVSS	low polyreactivity
